Experimental data taken from patent US20220251241A1 (NGM BIOPHARMACEUTICALS, published 2022).

Tests used:
[1] = biological target: human delta N-HTRA1 (amino acids 156-480 of SEQ ID NO:1) (human, UniProt Q92743 156-480); assay: SPR (Biacore); antibody captured by anti-Fc, human delta N-HTRA1 injected; temperature of this table not stated
Procedure: (§1) The binding affinities of anti-HTRA1 antibodies to human HTRA1 were measured using a Biacore system (GE Healthcare Life Sciences). Briefly, anti-Fc antibody (Sigma-Aldrich) was immobilized on all four flow cells of a CMS chip using amine coupling reagents (GE Healthcare LifeSciences). Antibodies were captured on flow cells 2, 3, and 4 using flow cell 1 as a reference. Concentrations ranging from 3.3-10 nM of human delta N-HTRA1 were injected at a flow rate of 50 μL/min at 37° C. Kinetic data were collected over time and fit using the simultaneous global fit equation to yield affinity constants (KD values) for each antibody.

[2] = biological target: T1, HTRA1 (construct not given) (Homo sapiens (Human), UniProt Q92743 23-480, limits assumed); assay: cell-based or functional assay
T1 sequence (Q92743 23-480 limits assumed): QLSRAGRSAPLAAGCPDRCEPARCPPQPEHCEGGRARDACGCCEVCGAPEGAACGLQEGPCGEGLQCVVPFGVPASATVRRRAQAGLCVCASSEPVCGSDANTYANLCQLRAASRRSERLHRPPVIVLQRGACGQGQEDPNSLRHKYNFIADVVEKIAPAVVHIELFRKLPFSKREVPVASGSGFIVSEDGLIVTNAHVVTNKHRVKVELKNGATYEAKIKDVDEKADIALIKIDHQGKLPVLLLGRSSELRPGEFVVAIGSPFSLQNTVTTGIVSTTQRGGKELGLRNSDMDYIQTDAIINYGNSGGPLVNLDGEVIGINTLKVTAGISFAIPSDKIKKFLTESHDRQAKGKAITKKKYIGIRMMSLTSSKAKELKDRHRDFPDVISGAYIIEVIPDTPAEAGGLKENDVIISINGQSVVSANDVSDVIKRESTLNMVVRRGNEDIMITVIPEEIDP

[3] = biological target: T1, HTRA1 (construct not stated in the …); assay: SPR (Biacore)
Procedure: as §1
In order to determine whether a hz24F7.v2 variant, comprising one of the amino acid substitutions disclosed in Table 15, retains its HTRA1 binding capability, functional characterization was performed via an SPR assay as described herein and an HTRA1 enzyme assay.

[4] = biological target: T1, HTRA1 (construct not stated in the …); assay: cell-based or functional assay; remark: listed apart in the source
[5] = biological target: T1, HTRA1 (construct not stated in the …); assay: cell-based or functional assay; remark: listed apart in the source
[6] = biological target: T1, HTRA1 (construct not stated in the …); assay: cell-based or functional assay; remark: listed apart in the source
[7] = biological target: T1, HTRA1 (construct not stated in the …); assay: SPR (Biacore); affinity at baseline
[8] = biological target: T1, HTRA1 (construct not stated in the …); assay: protease inhibition assay, H2-Opt peptide substrate (FRET); apparent Ki (Ki^app)
[9] = biological target: T1, HTRA1 (construct not stated in the …); assay: protease inhibition assay, casein substrate (EnzChek); apparent Ki (Ki^app)
Source text: Two enzymatic assays were used to characterize HTRA1 protease activity and evaluate inhibitory activity of anti-HTRA1 antibodies. EnzChek® Protease Assay Kit (ThermoFisher Scientific) was used following the manufacturer's instructions. This kit contains casein protein that is heavily labeled with the pH-insensitive green-fluorescent BOPIPY® FL dye that results in almost total quenching of the conjugate's fluorescence. Protease-catalyzed hydrolysis of labeled casein releases highly fluorescent BODIPY® FL dye-labeled peptides. The concomitant increase in fluorescence is proportional to protease activity.
Antibodies identified in HTRA1 binding assays were tested for their ability to inhibit HTRA1 protease activity. The range of antibody concentrations was tested to establish a dose response curve and determine IC₅₀ values.

Sequence of human delta N-HTRA1 (amino acids 156-480 of SEQ ID NO:1) (Q92743 156-480, stated change not applied): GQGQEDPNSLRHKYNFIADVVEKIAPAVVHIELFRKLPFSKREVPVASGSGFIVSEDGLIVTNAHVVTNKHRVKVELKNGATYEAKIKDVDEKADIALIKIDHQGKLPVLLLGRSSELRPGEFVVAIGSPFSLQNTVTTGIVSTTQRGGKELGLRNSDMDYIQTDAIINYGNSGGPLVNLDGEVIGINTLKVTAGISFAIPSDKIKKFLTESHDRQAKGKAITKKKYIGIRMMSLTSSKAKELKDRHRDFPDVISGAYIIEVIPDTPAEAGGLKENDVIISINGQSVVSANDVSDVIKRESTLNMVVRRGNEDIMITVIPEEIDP

Kd [1] [nM]	koff [1] [s⁻¹]	kon [1] [M⁻¹ s⁻¹]	IC50, Protease Assay-Casein substrate [2] [nM]	IC50, Protease Assay-H2-Opt peptide [2] [nM]	Kd [3] [nM]	koff [3] [s⁻¹]	kon [3] [M⁻¹ s⁻¹]	IC50, HTRA1 enzyme assay [5] [nM]	Binder	other results
0.42	0.003	6.9e+06	0.06	0.09					antibody 65G8 (antibody, V domains shown, Mouse hybridoma monoclonal antibody) VH: QVQLQQSGPQLVRPGASVKISCKASGYSFTSYWMHWVKQRPGQGLEWIGMIDPSDSETRLNQKFKDKATLTIDKSSSTAYMQLSSPTSEDSAVYYCTRDYFDYWGQGTTLTVSS VL: QIVLTQSPAIMSTSPGEKVTMTCSASSSVSYMYWYQQKPGSSPRLLIYDTSNLASGVPVRFSGSGSGTSYSLTISRMEAEDAATYYCQQWSSYPYTFGGGTKLEIK	
0.45	0.017	3.8e+07	0.13	0.13					antibody 55B12 (antibody, V domains shown, Mouse hybridoma monoclonal antibody) VH: QVQLQQPGAELVKPGASVKLSCKASGYTFTNYWMHWVKQRPGQGLEWIGNIDPSDSETHYNQKFKDKATLAVDKSSSTAYMQLSSLTSEDSAVYYCAREDSSGYGAYWGQGTLVTVSA VL: QIVLTQSPAIMSASPGEKVTMTCSASSSVNYMHWYQQKSGTSPKRWIYDTSKLASGVPDRFSGSGSGTSYSLTISSMEAEDAATYYCQQWSSHPLTFGAGTKLELK	
					0.0465	0.000169	3.63e+06		hz24F7.v2 S91A (antibody, human IgG1, kappa, N297G, V domains shown, hz24F7.v2 with a substitution in light chain CDR3) VH: QVQLVQSGAEVKKPGASVKVSCKASGYTFTDYEMHWVRQAPGQRLEWMGAIDPETGGTAYNQKFKGRVTITADKSASTAYMELSSLRSEDTAVYYCTREGYSYEGGGYYFDYWGQGTLVTVSS VL: DIQMTQSPSSLSASVGDRVTITCSVSSSVSYMYWYQQKPGKAPKLLIYDTSNLASGVPSRFSGSGSGTDFTFTISSLQPEDIATYYCQQWASYPTFGQGTKLEIKR	
					0.0266	0.000189	7.1e+06		hz24F7.v2 S91T (antibody, human IgG1, kappa, N297G, V domains shown, hz24F7.v2 with a substitution in light chain CDR3) VH: QVQLVQSGAEVKKPGASVKVSCKASGYTFTDYEMHWVRQAPGQRLEWMGAIDPETGGTAYNQKFKGRVTITADKSASTAYMELSSLRSEDTAVYYCTREGYSYEGGGYYFDYWGQGTLVTVSS VL: DIQMTQSPSSLSASVGDRVTITCSVSSSVSYMYWYQQKPGKAPKLLIYDTSNLASGVPSRFSGSGSGTDFTFTISSLQPEDIATYYCQQWTSYPTFGQGTKLEIKR	
					0.02	0.000197	9.81e+06	0.098	hz24F7.v2 S92T (antibody, human IgG1, kappa, N297G, V domains shown, hz24F7.v2 with a substitution in light chain CDR3) VH: QVQLVQSGAEVKKPGASVKVSCKASGYTFTDYEMHWVRQAPGQRLEWMGAIDPETGGTAYNQKFKGRVTITADKSASTAYMELSSLRSEDTAVYYCTREGYSYEGGGYYFDYWGQGTLVTVSS VL: DIQMTQSPSSLSASVGDRVTITCSVSSSVSYMYWYQQKPGKAPKLLIYDTSNLASGVPSRFSGSGSGTDFTFTISSLQPEDIATYYCQQWSTYPTFGQGTKLEIKR	IC50, enzyme assay; sample stored pH 7.4, 40° C., 0 weeks [4]: 67.5 pM; IC50, enzyme assay; sample stored pH 7.4, 40° C., 2 weeks [4]: 75.2 pM; IC50, enzyme assay; sample stored pH 7.4, 40° C., 4 weeks [4]: 93.7 pM
					0.0321	0.000275	8.56e+06	0.097	hz24F7.v2 S92Y (antibody, human IgG1, kappa, N297G, V domains shown, hz24F7.v2 with a substitution in light chain CDR3) VH: QVQLVQSGAEVKKPGASVKVSCKASGYTFTDYEMHWVRQAPGQRLEWMGAIDPETGGTAYNQKFKGRVTITADKSASTAYMELSSLRSEDTAVYYCTREGYSYEGGGYYFDYWGQGTLVTVSS VL: DIQMTQSPSSLSASVGDRVTITCSVSSSVSYMYWYQQKPGKAPKLLIYDTSNLASGVPSRFSGSGSGTDFTFTISSLQPEDIATYYCQQWSYYPTFGQGTKLEIKR	
					0.0439	0.000161	3.67e+06	0.084	hz24F7.v2 S91L (antibody, human IgG1, kappa, N297G, V domains shown) VH: QVQLVQSGAEVKKPGASVKVSCKASGYTFTDYEMHWVRQAPGQRLEWMGAIDPETGGTAYNQKFKGRVTITADKSASTAYMELSSLRSEDTAVYYCTREGYSYEGGGYYFDYWGQGTLVTVSS VL: DIQMTQSPSSLSASVGDRVTITCSVSSSVSYMYWYQQKPGKAPKLLIYDTSNLASGVPSRFSGSGSGTDFTFTISSLQPEDIATYYCQQWLSYPTFGQGTKLEIKR	
					0.0249	0.000217	8.7e+06	0.067	hz24F7.v2 S92D (antibody, human IgG1, kappa, N297G, V domains shown, hz24F7.v2 with a substitution in light chain CDR3) VH: QVQLVQSGAEVKKPGASVKVSCKASGYTFTDYEMHWVRQAPGQRLEWMGAIDPETGGTAYNQKFKGRVTITADKSASTAYMELSSLRSEDTAVYYCTREGYSYEGGGYYFDYWGQGTLVTVSS VL: DIQMTQSPSSLSASVGDRVTITCSVSSSVSYMYWYQQKPGKAPKLLIYDTSNLASGVPSRFSGSGSGTDFTFTISSLQPEDIATYYCQQWSDYPTFGQGTKLEIKR	
					0.0405	0.000184	4.54e+06	0.07	hz24F7.v2 S91Y (antibody, human IgG1, kappa, N297G, V domains shown, hz24F7.v2 with a substitution in light chain CDR3) VH: QVQLVQSGAEVKKPGASVKVSCKASGYTFTDYEMHWVRQAPGQRLEWMGAIDPETGGTAYNQKFKGRVTITADKSASTAYMELSSLRSEDTAVYYCTREGYSYEGGGYYFDYWGQGTLVTVSS VL: DIQMTQSPSSLSASVGDRVTITCSVSSSVSYMYWYQQKPGKAPKLLIYDTSNLASGVPSRFSGSGSGTDFTFTISSLQPEDIATYYCQQWYSYPTFGQGTKLEIKR	IC50, enzyme assay; sample stored pH 7.4, 40° C., 0 weeks [4]: 43.4 pM; IC50, enzyme assay; sample stored pH 7.4, 40° C., 2 weeks [4]: 42 pM; IC50, enzyme assay; sample stored pH 7.4, 40° C., 4 weeks [4]: 54.3 pM; IC50 at baseline [6]: 0.07 nM; Kd [7]: 0.0405 nM; koff [7]: 0.000184 s⁻¹; kon [7]: 4.54e+06 M⁻¹ s⁻¹
0.14	0.0044	3e+07	0.19	0.12					antibody 9F8 (antibody, V domains shown, Mouse hybridoma monoclonal antibody) VH: QVQLQQPGAELVRPGSSVKLSCKASGYAFTTYWMHWVKQRPIQGLEWIGNIDPSDSETHYNQKFRDKATLTVDKSSSTAYMQLSSLTSEDSAVYYCARDYGAFDVWGTGTTVTVSS VL: QAVVTQESALTTSSGETVTLTCRSSTGAVTTRNFASWVQEKPDHLFTGLIGGTNNRAPGVPARFSGSLIGDKAALTITGAQTEDEAIYFCALWYSNLWVFGGGTKLTVL	Ki [8]: 0.092 nM; Ki [9]: 0.035 nM
